Experiment in all cases: EMSA; glutaraldehyde-fixed; ssDNA EMSA: 10 nM DNA, 50 mM potassium phosphate pH 6.0, 5 mM EDTA, 5% glycerol, 0.1 mg/ml BSA, 37°C, 40 min, then 0.1% glutaraldehyde; second-strand EMSA: 5 nM each strand, 20 mM Tris-HCl pH 7.5, 5 mM MgCl2, 1 mM DTT, 0.1 mg/ml BSA, 37°C
In one data set the target is T1, Redβ K132A (Bacteriophage λ (Enterobacteria phage λ), UniProt P03698 1-261, K132A).
T1 sequence: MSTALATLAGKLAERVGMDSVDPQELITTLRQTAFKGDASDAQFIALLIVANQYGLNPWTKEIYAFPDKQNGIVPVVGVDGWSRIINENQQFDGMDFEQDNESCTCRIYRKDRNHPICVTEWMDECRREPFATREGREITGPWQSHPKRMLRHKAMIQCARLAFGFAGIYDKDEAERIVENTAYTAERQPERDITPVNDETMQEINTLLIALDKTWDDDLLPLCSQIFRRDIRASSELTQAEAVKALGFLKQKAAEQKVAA
Conditions: protein: recombinant; tags: His6 removed; N-terminal GSH left; label: 5' Cy3.

The next data set has as its target T2, Redβ K69A (Bacteriophage λ (Enterobacteria phage λ), UniProt P03698 1-261, K69A).
T2 sequence: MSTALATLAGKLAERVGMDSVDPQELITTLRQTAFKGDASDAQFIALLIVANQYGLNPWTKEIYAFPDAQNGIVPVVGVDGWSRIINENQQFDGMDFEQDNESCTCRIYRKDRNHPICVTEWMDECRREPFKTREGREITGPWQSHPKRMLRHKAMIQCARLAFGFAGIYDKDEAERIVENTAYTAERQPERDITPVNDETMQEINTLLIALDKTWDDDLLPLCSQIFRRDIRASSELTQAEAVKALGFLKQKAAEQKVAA
The conditions noted are these: protein: recombinant; tags: His6 removed; N-terminal GSH left; label: 5' Cy3.

Another data set concerns the target T3, Redβ K148A (Bacteriophage λ (Enterobacteria phage λ), UniProt P03698 1-261, K148A).
T3 sequence: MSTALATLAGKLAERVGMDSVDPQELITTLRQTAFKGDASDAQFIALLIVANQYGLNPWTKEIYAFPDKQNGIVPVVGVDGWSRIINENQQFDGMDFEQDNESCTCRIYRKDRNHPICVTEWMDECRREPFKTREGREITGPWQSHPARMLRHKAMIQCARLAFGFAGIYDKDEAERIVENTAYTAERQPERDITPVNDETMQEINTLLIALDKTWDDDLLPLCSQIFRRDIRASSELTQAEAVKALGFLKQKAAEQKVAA
Conditions: protein: recombinant; tags: His6 removed; N-terminal GSH left; label: 5' Cy3.

A further data set deals with T4, Redβ R152A (Bacteriophage λ (Enterobacteria phage λ), UniProt P03698 1-261, R152A).
T4 sequence: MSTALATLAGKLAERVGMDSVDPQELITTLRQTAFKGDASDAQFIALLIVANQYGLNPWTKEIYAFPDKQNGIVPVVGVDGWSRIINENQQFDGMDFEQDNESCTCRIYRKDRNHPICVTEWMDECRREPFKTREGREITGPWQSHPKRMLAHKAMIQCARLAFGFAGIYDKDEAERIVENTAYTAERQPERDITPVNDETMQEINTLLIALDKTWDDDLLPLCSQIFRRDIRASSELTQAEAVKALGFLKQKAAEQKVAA
Conditions: protein: recombinant; tags: His6 removed; N-terminal GSH left; label: 5' Cy3.

A further data set deals with T5, Redβ V77A (Bacteriophage λ (Enterobacteria phage λ), UniProt P03698 1-261, V77A).
T5 sequence: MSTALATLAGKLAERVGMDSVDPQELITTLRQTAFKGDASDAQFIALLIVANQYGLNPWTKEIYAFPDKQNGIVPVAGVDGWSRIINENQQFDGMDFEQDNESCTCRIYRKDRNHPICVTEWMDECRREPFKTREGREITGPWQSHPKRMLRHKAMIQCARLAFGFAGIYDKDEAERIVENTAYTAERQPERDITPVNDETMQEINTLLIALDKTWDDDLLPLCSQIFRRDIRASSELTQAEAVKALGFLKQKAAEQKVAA
Conditions: protein: recombinant; tags: His6 removed; N-terminal GSH left; label: 5' Cy3.

The target in the next data set is T6, Redβ WT (Bacteriophage λ (Enterobacteria phage λ), UniProt P03698 1-261).
T6 sequence: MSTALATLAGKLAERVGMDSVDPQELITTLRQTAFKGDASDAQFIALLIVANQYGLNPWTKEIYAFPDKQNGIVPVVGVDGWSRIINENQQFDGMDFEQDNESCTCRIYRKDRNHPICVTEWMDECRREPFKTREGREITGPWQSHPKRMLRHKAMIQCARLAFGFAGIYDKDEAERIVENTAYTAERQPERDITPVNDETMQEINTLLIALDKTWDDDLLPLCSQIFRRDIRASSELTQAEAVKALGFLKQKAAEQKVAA
The conditions noted are these: protein: recombinant; tags: N-terminal His6 removed by thrombin; Gly-Ser-His left before Met1; label: 5' Cy3.

This note sets out measurements from paper PMC3823998, “Structural and Functional Characterization of the Redβ Recombinase from Bacteriophage λ” (PLoS ONE, 2013).

For TGCGGATGGCTTAGAGCTTAATTGCTGAATCTGGTGCTGTAGCTCAACAT (ssDNA) [50-minus ssDNA], the binding signal in the data set with Redβ K132A was 82 % of WT binding at 3 µM protein; in the data set with Redβ K69A, 94 % of WT binding at 3 µM protein; with Redβ K148A, 43 % of WT binding at 3 µM protein; with Redβ R152A it was 13 % of WT binding at 3 µM protein; with Redβ V77A, 11 % of WT binding at 3 µM protein. The binding result in the data set with Redβ WT is given as “binds”.
